Test results reported in patent publication US20220340657A1 (L AND L BIO CO LTD NINGBO CHINA, published 2022).
Residue numbers refer to the chain shown, from its start. “And” between values parts separate entries of the source, which are not always exact repeats. Identical values can stand only once. Like-named read-outs stand apart in the source and are kept apart here. Values belong to the binder of their own block, whether it stands above or below them.

What was measured:
human LAG-3-his [1] = biological target: T1, human LAG-3-his (human, UniProt P18627 23-422); assay: ELISA on coated human LAG-3, OD450 (Example 3, Example 13) [panel a]
T1 construct: range 23-422; also called hLAG-3-his; hLAG-3
T1 sequence: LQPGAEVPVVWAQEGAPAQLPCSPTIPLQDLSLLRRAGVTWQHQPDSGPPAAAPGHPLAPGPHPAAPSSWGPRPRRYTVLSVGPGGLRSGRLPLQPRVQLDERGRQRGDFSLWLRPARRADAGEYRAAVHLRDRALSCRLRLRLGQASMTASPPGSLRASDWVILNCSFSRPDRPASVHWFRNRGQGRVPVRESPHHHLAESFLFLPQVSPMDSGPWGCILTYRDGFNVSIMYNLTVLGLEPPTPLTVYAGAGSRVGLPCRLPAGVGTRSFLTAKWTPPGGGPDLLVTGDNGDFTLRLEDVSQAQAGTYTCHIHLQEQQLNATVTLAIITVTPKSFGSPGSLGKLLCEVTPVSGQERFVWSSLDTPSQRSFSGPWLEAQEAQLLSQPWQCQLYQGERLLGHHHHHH

human LAG-3-his [2] = biological target: T1, human LAG-3-his; assay: as above; remark: listed apart in the source
human LAG-3-his [3] = biological target: T1, human LAG-3-his; assay: as above; remark: listed apart in the source
human LAG-3-his [4] = biological target: T1, human LAG-3-his; assay: ELISA on human LAG-3, same experiment
cyno-LAG3-hFc [5] = biological target: T2, cyno-LAG3-hFc (cynomolgus monkey); assay: ELISA
T2 construct: Bought product; also called cynomolgus monkey LAG-3

cyno-LAG3-hFc [6] = biological target: T2, cyno-LAG3-hFc; assay: ELISA; remark: listed apart in the source
Method: (§1) After discarding the liquid, a blocking solution of 5% skimmed milk (Bright skimmed milk powder) diluted with PBS was added at 230 μl per well, followed by incubating at 37° C. for 3 hours or 4° C. overnight (16-18 hours) for blocking. Subsequently, the blocking solution was discarded, and the micropiate was washed 5 times with PBST buffer (pH 7.4 PBS containing 0.05% tweeen-20). Then 50 μl/well of the supernatant (containing the antibody to be tested) or a starting concentration of 10 μg/ml of the antibody to be tested, which was diluted 5 times in gradient, was added, followed by incubating the mixture for 1 hour at 37° C. […] After washing the microplate 5 times with PBST, 50 μl/well TIMB chromogenic substrate (KPL, Cat. No.: 52-00-03) was added, and then incubated for […] at room temperature. Finally, 50 μl/well of 1 M H₂SO₄ was added to stop the reaction. The absorbance value at 450 nm was read by […] GO microplate reader (ThermoFisher, Cat. No.: 51119200). The clones with high affinity were selected according to the OD value or the EC₅₀ value was calculated (for antibodies with known concentrations).

hLAG-3-D12-hFc = biological target: T3, hLAG-3-D12-hFc (human, UniProt P18627 23-239); assay: ELISA
T3 construct: range 23-239
T3 sequence (looked up): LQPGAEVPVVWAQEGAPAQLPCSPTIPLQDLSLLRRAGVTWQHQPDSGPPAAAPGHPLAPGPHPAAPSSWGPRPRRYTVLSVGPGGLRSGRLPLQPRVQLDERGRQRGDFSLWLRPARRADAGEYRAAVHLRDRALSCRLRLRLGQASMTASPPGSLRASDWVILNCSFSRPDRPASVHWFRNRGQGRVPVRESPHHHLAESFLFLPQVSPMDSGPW
Method: as §1

hLAG-3-D12-his = biological target: T4, hLAG-3-D12-his (human, UniProt P18627 23-239); assay: ELISA
T4 construct: range 23-239
T4 sequence: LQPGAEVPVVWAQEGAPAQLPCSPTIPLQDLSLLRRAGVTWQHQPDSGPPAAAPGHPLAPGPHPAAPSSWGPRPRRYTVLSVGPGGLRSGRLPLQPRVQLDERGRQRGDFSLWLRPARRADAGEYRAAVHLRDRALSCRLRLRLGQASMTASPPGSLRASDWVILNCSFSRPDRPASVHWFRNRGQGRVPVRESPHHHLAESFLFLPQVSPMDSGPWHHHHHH
Method: as §1

human LAG-3-hFc = biological target: T5, human LAG-3-hFc (human, UniProt P18627 23-422); assay: ELISA
T5 construct: range 23-422; also called hLAG-3-hFc
T5 sequence (looked up): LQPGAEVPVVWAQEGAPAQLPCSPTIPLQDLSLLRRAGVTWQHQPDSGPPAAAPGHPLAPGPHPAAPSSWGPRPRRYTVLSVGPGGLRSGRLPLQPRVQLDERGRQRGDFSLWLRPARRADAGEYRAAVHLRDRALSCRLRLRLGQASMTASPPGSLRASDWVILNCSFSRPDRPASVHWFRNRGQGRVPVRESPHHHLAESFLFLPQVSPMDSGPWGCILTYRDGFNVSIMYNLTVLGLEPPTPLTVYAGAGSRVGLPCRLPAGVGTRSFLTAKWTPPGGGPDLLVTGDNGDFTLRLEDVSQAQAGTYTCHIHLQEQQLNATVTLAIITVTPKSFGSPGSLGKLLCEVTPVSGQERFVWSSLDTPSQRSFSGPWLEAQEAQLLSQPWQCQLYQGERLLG
Method: as §1

human LAG-3-his [7] = biological target: T1, human LAG-3-his; assay: ELISA
Method: as §1

[8] = biological target: T6, murine LAG-3 his tagged (mLAG-3-his) (mouse, UniProt Q61790 23-406); assay: ELISA
T6 construct: range 23-406; also called mouse LAG-3
T6 sequence: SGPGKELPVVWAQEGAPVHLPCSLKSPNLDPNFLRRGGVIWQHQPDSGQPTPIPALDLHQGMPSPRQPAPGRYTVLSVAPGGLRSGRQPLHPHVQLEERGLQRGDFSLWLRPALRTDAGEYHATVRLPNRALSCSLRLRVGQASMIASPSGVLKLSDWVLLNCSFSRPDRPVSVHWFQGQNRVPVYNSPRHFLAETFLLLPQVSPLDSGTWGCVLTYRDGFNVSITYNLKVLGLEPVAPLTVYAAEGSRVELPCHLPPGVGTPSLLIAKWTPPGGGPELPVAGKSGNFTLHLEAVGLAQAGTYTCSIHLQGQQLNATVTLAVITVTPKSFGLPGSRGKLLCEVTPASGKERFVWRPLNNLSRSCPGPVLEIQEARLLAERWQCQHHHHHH
Method: as §1

EC50 (read off the curve) (human LAG-3-his [1]): ~300 pM | EC50 (read off the curve) (human LAG-3-his [2]): ~300 pM | EC50 (read off the curve) (human LAG-3-his [3]): ~300 pM | EC50 (human LAG-3-his [4]): 287 pM and 579 pM and 440 pM | fold weaker than binding to human LAG-3 (cyno-LAG3-hFc [5]): > 200 times | EC50 (cyno-LAG3-hFc [6]): 40200 pM | EC50 (hLAG-3-D12-hFc): 2590 pM | EC50 (hLAG-3-D12-his): 1710 pM | EC50 (human LAG-3-hFc): 250 pM | EC50 (human LAG-3-his [7]): 160 pM | binding result [8]: no binding
B1: humanized anti-human LAG-3 antibody Ab2317 (antibody, human IgG4 S228P, kappa, V domains shown)
VH: QVQLVQSGAEVKKPGASVKVSCKASGYTFTDYEMHWVKQAPGQGLEWIGGIDPETEGIAYNQKFRGRATLTADKSTSTAYMELRSLRSDDTAVYYCTNSNYYGGREAWFAYWGQGTLVTVSS
VL: DIQMTQSPSSLSASVGDRVTITCRASQDIGSSLNWYQQKPGKAPKRLIYATSSLDSGVPSRFSGSRSGSDFTLTISSLQPEDFATYYCLQYVTSPLTFGGGTKVEIKR
notes: LG2317 / LG2343, human kappa / hIgG4

EC50 (human LAG-3-his [4]): 312 pM | fold weaker than binding to human LAG-3 (cyno-LAG3-hFc [5]): > 200 times | EC50 (cyno-LAG3-hFc [6]): 44500 pM | EC50 (hLAG-3-D12-hFc): 2010 pM | EC50 (hLAG-3-D12-his): 1510 pM | EC50 (human LAG-3-hFc): 400 pM | EC50 (human LAG-3-his [7]): 190 pM | binding result [8]: no binding
B2: humanized antibody Ab2325 (antibody, human IgG4 S228P, kappa, V domains shown)
VH: B1 VH with I48M, L70M, A72T, K74T, T97A
VL: B1 VL
notes: LG2317 / LG2348, human kappa / hIgG4
